Assay in all cases: Selectivity for human integrin receptors: phage binding to plate-coated purified integrin
What all share (conditions): FIG. 1; purified integrin coated at 1 μg/mL; phage-displayed ligand, detection at 450 nm

One test has as its target T1, α3β1 integrin receptor (Homo sapiens, UniProt P05556+P26006).
T1 construct: purchased Chemicon, Temecula, Calif
As for the experimental part: (§1) Nunc MaxiSorp™ 96-well plates are coated with 200 μL of purified human α3β1, α5β1, and αvβ5 integrins (Chemicon, Temecula, Calif.) at 1 μg/mL in Tween 20™/PBS buffer, pH 7.5 (4° C.). After blocking for two hours with 5% (w/v) BSA (bovine serum albumin) in PBS, pH 7.5, phage samples are incubated with integrins in PBS, pH 7.5, supplemented with 2.5% (w/v) non-fat dry milk. After one hour of incubation, unbound phages are removed and the wells are washed five times with Ca^2+- and Mg^2+-containing PBS, pH 7.5.
(§2) Bound phages are quantified spectrophotometrically at λ=450 nm using monoclonal mouse T7 tail fiber antibody (1:5,000) followed by goat anti-mouse IgG horseradish peroxidase:conjugate (1:5,000) and TMB (3,3′,5,5′-tetramethyl-benzidine) as substrate.

The target of test [1] is T2, human α5β1 integrin receptor (Homo sapiens, UniProt P05556+P08648).
T2 construct: purchased Chemicon, Temecula, Calif
The procedure: as §1, §2

Another test relates to αvβ3 integrin receptor.

T2 sequence (P08648 42-894 limits assumed): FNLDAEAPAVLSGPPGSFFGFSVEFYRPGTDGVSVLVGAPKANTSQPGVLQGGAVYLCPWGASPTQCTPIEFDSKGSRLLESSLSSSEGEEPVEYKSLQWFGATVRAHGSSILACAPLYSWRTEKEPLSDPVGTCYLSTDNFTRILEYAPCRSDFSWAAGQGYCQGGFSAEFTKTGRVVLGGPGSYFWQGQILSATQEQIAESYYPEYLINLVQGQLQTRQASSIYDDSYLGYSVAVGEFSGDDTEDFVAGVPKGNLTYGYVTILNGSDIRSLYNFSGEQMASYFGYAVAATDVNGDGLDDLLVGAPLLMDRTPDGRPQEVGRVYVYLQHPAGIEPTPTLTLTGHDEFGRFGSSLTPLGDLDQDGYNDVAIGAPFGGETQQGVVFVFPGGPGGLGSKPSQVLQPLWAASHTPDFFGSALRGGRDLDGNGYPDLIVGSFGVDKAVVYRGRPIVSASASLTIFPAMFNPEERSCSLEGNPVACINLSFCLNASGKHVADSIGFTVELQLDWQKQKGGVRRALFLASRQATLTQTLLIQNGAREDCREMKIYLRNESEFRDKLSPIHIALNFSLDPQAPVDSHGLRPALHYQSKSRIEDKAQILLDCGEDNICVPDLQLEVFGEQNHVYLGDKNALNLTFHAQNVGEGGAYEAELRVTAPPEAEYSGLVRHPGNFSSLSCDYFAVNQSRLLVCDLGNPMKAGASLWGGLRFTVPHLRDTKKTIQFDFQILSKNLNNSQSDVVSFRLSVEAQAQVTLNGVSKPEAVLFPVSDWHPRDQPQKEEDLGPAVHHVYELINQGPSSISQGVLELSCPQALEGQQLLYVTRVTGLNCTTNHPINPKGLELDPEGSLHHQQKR
T2 sequence (P08648 895-1049 partner limits assumed): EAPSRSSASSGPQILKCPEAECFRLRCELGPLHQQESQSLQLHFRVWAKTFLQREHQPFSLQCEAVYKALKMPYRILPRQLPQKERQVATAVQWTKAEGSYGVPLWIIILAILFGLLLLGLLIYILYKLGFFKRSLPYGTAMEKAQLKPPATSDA
T2 sequence (P05556 21-798): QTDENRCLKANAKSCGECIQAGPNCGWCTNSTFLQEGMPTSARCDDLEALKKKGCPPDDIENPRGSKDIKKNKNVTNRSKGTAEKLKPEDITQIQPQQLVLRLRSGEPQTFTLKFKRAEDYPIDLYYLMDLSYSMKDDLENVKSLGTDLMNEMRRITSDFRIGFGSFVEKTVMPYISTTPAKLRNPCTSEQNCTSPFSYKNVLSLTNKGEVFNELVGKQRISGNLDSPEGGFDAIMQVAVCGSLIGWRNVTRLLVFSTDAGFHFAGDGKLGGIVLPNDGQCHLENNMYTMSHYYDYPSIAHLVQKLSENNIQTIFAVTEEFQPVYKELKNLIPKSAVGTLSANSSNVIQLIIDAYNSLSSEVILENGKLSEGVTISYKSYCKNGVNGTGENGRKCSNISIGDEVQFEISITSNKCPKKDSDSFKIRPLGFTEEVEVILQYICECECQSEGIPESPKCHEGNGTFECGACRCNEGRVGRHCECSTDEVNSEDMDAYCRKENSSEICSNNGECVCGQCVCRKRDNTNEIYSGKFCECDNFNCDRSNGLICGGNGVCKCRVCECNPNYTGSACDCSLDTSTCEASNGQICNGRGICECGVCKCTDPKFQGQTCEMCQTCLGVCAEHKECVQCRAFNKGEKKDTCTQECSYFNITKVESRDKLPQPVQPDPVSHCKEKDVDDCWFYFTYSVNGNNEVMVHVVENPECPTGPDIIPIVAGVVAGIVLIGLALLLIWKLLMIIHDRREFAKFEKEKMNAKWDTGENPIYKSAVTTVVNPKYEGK
T1 sequence (P26006 33-872 limits assumed): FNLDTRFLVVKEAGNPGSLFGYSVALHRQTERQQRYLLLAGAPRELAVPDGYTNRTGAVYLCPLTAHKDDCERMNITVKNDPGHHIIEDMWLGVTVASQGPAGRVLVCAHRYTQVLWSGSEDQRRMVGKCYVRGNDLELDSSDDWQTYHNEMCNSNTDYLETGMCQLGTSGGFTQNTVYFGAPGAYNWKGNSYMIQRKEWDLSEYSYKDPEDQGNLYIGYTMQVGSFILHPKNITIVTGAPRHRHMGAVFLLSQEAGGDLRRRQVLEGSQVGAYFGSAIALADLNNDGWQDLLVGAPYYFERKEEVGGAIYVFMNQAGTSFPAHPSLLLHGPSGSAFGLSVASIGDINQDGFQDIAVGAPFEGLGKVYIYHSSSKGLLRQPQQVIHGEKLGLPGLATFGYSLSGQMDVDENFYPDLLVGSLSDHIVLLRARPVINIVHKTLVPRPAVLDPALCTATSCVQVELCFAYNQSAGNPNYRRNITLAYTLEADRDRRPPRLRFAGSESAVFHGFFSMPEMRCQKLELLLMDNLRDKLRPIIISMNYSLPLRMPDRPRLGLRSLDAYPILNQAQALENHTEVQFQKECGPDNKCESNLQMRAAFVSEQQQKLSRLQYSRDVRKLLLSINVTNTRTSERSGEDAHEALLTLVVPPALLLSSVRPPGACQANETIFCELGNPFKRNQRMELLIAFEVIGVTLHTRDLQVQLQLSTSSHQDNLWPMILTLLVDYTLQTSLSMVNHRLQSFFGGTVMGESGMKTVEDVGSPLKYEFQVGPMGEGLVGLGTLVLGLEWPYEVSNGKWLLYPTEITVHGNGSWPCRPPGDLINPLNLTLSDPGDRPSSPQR
T1 sequence (P26006 873-1051 partner limits assumed): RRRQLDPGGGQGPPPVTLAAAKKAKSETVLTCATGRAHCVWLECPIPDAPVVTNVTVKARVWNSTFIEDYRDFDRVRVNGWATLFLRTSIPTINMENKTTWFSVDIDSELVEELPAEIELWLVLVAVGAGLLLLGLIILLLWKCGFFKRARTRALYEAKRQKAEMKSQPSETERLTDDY
T1 sequence (P05556 21-798): as the sequence (P05556 21-798) above

Turning to “RYRGDLGRR [α5β1 integrin-specific ligand peptide]”, the “affinity for α3β1 integrin receptor” value with α3β1 integrin receptor is on record as “displays affinity”. Moreover, the “binding to surface-immobilized human α5β1 integrin receptor” value in test [1] is given as “binds most effectively”. Also, the “affinity for αvβ3 integrin receptor” value with αvβ3 integrin receptor is recorded as “displays affinity”.

The values above are taken from patent US20100166808A1, “Method of Facilitating Intracellular Uptake or Transcellular Transport of Cargo Using Nanocarriers Containing Optimal Surface Densities of Integrin-Specific Ligands” (priority 2008, published 2010).
